What was measured:
[1] = target: T1, angiotensin I-converting enzyme (ACE, EC 3.4.15.1) from rabbit lung (rabbit, UniProt P12822 34-1310); assay: cell-based or functional assay
T1 sequence (looked up): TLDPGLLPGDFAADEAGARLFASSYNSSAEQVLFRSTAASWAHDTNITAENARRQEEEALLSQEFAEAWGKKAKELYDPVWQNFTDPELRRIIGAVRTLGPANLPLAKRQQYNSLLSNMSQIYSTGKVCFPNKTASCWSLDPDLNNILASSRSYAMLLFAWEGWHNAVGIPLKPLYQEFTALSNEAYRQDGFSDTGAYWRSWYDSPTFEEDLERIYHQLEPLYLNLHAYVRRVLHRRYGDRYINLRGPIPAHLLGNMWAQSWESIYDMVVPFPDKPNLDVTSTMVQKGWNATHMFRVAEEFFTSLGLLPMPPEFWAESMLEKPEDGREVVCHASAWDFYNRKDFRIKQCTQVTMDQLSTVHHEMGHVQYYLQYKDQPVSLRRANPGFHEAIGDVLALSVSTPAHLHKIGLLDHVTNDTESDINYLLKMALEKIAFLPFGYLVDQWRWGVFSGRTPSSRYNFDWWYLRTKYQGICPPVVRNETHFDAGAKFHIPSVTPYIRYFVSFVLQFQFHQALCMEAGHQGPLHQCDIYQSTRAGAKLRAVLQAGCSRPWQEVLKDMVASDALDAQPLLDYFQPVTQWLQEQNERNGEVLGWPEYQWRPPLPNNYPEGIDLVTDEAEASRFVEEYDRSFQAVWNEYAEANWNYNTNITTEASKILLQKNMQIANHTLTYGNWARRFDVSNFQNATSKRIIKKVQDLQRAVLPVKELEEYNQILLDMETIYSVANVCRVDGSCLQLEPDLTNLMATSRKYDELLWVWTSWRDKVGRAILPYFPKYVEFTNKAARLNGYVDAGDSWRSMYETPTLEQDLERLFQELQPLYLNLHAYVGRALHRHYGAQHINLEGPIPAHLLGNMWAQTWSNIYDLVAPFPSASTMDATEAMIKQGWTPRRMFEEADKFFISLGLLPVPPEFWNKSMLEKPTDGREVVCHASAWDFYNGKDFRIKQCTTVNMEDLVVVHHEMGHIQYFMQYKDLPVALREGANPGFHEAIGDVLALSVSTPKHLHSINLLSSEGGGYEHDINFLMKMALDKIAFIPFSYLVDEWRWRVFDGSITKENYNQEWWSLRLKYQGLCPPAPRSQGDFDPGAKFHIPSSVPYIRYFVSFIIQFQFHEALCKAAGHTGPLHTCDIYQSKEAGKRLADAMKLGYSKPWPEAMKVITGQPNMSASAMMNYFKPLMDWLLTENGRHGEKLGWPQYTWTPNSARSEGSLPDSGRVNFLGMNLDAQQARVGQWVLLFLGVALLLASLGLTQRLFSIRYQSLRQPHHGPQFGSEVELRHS

[2] = target: T1, angiotensin I-converting enzyme (ACE, …); assay: cell-based or functional assay; remark: listed apart in the source

ARL [ACE inhibitory peptide Ala-Arg-Leu/Ile (ARL/I)]
IC50 of ACE inhibitory activity (HHL substrate, hippuric acid at 228 nM) [1]: 45 µg/mL
IC50 of ACE inhibitory activity, calculated from the molecular mass of ARL/I and Table 2 [2]: 126 µM
